B1: GpH7-B3 variant Y296_08L/GpL16-k0 (antibody, human IgG1, kappa)
heavy: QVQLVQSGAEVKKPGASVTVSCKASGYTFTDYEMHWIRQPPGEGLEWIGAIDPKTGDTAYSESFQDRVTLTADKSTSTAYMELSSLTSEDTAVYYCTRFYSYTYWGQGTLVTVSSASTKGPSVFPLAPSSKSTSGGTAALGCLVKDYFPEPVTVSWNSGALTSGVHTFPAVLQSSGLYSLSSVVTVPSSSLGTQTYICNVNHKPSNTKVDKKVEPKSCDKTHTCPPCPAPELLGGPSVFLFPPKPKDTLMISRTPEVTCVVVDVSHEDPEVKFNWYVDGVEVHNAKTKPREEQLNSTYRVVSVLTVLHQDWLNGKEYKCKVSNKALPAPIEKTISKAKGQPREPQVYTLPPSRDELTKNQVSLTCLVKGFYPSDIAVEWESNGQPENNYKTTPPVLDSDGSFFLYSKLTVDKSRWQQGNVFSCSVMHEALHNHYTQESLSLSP
light: DIVMTQSPLSLPVTPGEPASISCQASESLVHSNRNTYLHWYLQKPGQSPQLLIYKVSNRFSGVPDRFSGSGSGTDFTLKISRVEAEDVGVYYCSQNTHVPPTFGQGTKVEIERTVAAPSVFIFPPSDEQLKSGTASVVCLLNNFYPREAKVQWKVDNALQSGNSQESVTEQDSKDSTYSLSSTLTLSKADYEKHKVYACEVTHQGLSSPVTKSFNRGEC
notes: Alteration in both H chains; also called Ho Ab Y296_08L
B2: GpH7-B3 variant Y296_03V/GpL16-k0 (antibody, human IgG1, kappa)
heavy: not shown
light: B1 light
notes: Alteration in both H chains; also called Ho Ab Y296_03V
B3: GpH7-B3 variant K334_15Y/GpL16-k0 (antibody, human IgG1, kappa)
heavy: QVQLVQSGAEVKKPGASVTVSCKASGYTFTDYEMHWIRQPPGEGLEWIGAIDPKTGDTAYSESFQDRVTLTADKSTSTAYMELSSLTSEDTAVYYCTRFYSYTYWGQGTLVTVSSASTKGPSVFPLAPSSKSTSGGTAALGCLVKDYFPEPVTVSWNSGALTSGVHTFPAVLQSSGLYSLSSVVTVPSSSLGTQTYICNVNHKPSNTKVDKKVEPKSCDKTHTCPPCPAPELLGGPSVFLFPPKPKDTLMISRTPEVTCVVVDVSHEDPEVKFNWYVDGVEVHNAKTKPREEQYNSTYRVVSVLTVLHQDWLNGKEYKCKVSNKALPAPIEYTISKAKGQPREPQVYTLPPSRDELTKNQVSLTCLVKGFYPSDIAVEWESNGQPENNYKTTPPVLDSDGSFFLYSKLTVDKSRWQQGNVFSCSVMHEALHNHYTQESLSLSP
light: B1 light
notes: Alteration in both H chains; also called Ho Ab K334_15Y
B4: GpH7-B3 variant T335_13S/GpL16-k0 (antibody, human IgG1, kappa)
heavy: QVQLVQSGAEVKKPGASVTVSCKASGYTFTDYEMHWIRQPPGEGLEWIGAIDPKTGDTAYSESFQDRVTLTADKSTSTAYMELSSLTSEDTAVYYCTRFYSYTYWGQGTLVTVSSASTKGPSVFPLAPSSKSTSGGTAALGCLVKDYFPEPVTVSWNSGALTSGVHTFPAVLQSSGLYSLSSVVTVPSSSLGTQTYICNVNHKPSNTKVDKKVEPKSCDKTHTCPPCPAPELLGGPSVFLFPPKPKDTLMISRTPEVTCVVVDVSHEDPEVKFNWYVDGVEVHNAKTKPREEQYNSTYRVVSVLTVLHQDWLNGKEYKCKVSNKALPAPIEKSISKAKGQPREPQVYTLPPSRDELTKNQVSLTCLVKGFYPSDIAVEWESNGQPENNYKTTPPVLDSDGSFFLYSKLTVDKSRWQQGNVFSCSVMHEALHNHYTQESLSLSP
light: B1 light
notes: Alteration in both H chains; also called Ho Ab T335_13S
B5: GpH7-B3 variant K334_19Q/GpL16-k0 (antibody, human IgG1, kappa)
heavy: not shown
light: B1 light
notes: Alteration in both H chains; also called Ho Ab K334_19Q
B6: GpH7-B3 variant K326_19Q/GpL16-k0 (antibody, human IgG1, kappa)
heavy: not shown
light: B1 light
notes: Alteration in both H chains; also called Ho Ab K326_19Q
B7: GpH7-B3 variant Q295_10E/GpL16-k0 (antibody, human IgG1, kappa)
heavy: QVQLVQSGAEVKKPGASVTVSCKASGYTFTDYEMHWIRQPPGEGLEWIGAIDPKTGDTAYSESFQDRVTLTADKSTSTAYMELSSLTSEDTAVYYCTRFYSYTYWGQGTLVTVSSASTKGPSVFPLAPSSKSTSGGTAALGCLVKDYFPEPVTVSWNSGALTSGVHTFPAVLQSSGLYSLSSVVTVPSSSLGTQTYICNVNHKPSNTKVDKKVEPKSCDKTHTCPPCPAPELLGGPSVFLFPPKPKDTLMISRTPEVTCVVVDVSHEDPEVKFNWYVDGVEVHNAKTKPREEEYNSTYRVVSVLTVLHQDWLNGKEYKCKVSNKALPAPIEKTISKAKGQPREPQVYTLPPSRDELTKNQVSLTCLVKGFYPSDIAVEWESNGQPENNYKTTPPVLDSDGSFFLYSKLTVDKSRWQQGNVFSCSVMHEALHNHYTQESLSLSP
light: B1 light
notes: Alteration in both H chains; also called Ho Ab Q295_10E
B8: GpH7-B3 variant S267_18N/GpL16-k0 (antibody, human IgG1, kappa)
heavy: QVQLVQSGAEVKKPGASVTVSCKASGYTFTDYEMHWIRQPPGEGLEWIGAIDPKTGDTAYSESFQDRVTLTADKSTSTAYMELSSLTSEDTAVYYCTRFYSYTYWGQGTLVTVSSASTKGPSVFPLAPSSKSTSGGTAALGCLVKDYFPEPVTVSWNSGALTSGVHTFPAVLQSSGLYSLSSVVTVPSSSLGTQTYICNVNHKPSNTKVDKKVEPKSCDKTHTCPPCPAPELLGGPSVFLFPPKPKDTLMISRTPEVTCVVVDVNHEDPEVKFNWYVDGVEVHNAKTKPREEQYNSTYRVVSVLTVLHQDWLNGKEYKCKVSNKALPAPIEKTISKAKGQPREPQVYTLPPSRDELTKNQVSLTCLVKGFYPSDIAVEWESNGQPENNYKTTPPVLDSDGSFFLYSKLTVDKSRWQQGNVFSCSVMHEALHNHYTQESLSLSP
light: B1 light
notes: Alteration in both H chains; also called Ho Ab S267_18N
B9: GpH7-B3 variant K334_02A/GpL16-k0 (antibody, human IgG1, kappa)
heavy: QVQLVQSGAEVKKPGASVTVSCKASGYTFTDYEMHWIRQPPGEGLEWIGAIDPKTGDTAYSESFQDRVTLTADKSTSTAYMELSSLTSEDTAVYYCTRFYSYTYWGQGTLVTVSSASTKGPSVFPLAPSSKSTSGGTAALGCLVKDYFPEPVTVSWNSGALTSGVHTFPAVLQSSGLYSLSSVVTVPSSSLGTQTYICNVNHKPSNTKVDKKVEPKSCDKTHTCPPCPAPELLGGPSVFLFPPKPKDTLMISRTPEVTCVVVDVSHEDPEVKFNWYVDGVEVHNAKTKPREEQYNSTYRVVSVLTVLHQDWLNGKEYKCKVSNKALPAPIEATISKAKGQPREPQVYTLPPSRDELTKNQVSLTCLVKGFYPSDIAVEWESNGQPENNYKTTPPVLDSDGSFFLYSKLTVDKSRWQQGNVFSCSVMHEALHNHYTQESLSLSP
light: B1 light
notes: Alteration in both H chains; also called Ho Ab K334_02A
B10: GpH7-B3 variant K334_09D/GpL16-k0 (antibody, human IgG1, kappa)
heavy: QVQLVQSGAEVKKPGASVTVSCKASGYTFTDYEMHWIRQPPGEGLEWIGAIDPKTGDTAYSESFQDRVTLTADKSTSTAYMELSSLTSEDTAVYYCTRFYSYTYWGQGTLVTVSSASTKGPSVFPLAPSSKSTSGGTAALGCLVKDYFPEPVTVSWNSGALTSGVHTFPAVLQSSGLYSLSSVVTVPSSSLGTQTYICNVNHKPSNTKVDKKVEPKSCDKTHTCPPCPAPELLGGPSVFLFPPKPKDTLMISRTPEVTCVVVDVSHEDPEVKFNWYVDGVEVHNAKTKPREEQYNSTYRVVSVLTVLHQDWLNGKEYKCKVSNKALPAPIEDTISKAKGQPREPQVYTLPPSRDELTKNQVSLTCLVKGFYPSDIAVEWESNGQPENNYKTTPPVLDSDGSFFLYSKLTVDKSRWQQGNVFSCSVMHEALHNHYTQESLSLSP
light: B1 light
notes: Alteration in both H chains; also called Ho Ab K334_09D
B11: GpH7-B3 variant L328_15Y/GpL16-k0 (antibody, human IgG1, kappa)
heavy: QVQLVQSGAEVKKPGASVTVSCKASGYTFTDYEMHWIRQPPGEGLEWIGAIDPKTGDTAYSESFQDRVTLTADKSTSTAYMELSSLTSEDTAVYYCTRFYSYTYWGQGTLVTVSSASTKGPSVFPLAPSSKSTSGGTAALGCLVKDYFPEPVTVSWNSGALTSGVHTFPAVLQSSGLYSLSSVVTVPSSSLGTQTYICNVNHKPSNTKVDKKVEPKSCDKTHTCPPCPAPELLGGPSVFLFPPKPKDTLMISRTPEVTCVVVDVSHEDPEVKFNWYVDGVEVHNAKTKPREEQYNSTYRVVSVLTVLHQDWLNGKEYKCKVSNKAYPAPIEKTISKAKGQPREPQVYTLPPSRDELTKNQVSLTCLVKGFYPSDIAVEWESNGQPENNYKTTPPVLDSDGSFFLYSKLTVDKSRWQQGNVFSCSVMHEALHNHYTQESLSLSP
light: B1 light
notes: Alteration in both H chains; also called Ho Ab L328_15Y
B12: GpH7-B3 variant S337_11K/GpL16-k0 (antibody, human IgG1, kappa)
heavy: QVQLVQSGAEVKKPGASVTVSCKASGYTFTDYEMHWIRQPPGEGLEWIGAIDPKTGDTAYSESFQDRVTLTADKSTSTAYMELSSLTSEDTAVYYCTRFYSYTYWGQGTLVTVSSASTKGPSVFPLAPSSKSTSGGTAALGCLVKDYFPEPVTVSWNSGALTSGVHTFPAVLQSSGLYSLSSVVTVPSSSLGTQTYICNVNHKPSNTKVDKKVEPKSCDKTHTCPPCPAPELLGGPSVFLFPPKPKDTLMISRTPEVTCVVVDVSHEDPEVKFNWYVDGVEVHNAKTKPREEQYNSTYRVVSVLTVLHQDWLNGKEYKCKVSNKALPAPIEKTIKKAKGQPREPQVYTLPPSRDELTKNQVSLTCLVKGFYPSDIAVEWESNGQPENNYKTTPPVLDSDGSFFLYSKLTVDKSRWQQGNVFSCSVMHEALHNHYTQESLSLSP
light: B1 light
notes: Alteration in both H chains; also called Ho Ab S337_11K
B13: GpH7-B3 variant T335_01G/GpL16-k0 (antibody, human IgG1, kappa)
heavy: not shown
light: B1 light
notes: Alteration in both H chains; also called Ho Ab T335_01G
B14: GpH7-B3 variant K334_03V/GpL16-k0 (antibody, human IgG1, kappa)
heavy: not shown
light: B1 light
notes: Alteration in both H chains; also called Ho Ab K334_03V
B15: GpH7-B3 variant P271_10E/GpL16-k0 (antibody, human IgG1, kappa)
heavy: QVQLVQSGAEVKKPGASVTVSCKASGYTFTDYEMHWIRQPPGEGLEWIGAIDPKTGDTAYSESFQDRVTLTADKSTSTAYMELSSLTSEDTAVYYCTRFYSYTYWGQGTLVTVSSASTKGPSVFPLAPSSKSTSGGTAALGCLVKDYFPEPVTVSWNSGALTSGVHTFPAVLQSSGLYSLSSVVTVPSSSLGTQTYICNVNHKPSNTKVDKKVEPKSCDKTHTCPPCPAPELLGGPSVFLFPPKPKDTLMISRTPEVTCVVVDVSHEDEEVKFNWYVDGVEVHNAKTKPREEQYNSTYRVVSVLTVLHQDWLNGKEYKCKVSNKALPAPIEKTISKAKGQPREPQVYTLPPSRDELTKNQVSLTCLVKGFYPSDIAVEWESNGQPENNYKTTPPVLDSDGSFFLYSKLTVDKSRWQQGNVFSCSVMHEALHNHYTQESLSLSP
light: B1 light
notes: Alteration in both H chains; also called Ho Ab P271_10E
B16: GpH7-B3 variant S337_14T/GpL16-k0 (antibody, human IgG1, kappa)
heavy: not shown
light: B1 light
notes: Alteration in both H chains; also called Ho Ab S337_14T
B17: GpH7-A5/GpH7-B3 variant K334_01G/GpL16-k0 (antibody, human IgG1, kappa)
heavy 1: not shown
heavy 2: not shown
light: B1 light
notes: Alteration in one H chain only; also called He Ab K334_01G
B18: GpH7-A5/GpH7-B3 variant K326_19Q/GpL16-k0 (antibody, human IgG1, kappa)
heavy 1: not shown
heavy 2: not shown
light: B1 light
notes: Alteration in one H chain only; also called He Ab K326_19Q
B19: GpH7-A5/GpH7-B3 variant I336_15Y/GpL16-k0 (antibody, human IgG1, kappa)
heavy 1: not shown
heavy 2: not shown
light: B1 light
notes: Alteration in one H chain only; also called He Ab I336_15Y
B20: GpH7-A5/GpH7-B3 variant K334_03V/GpL16-k0 (antibody, human IgG1, kappa)
heavy 1: not shown
heavy 2: not shown
light: B1 light
notes: Alteration in one H chain only; also called He Ab K334_03V
B21: GpH7-A5/GpH7-B3 variant I336_16H/GpL16-k0 (antibody, human IgG1, kappa)
heavy 1: not shown
heavy 2: not shown
light: B1 light
notes: Alteration in one H chain only; also called He Ab I336_16H
B22: GpH7-A5/GpH7-B3 variant K326_06M/GpL16-k0 (antibody, human IgG1, kappa)
heavy 1: not shown
heavy 2: not shown
light: B1 light
notes: Alteration in one H chain only; also called He Ab K326_06M
B23: GpH7-A5/GpH7-B3 variant K326_20W/GpL16-k0 (antibody, human IgG1, kappa)
heavy 1: not shown
heavy 2: not shown
light: B1 light
notes: Alteration in one H chain only; also called He Ab K326_20W
B24: GpH7-A5/GpH7-B3 variant K326_09D/GpL16-k0 (antibody, human IgG1, kappa)
heavy 1: not shown
heavy 2: not shown
light: B1 light
notes: Alteration in one H chain only; also called He Ab K326_09D
B25: GpH7-A5/GpH7-B3 variant K326_10E/GpL16-k0 (antibody, human IgG1, kappa)
heavy 1: not shown
heavy 2: not shown
light: B1 light
notes: Alteration in one H chain only; also called He Ab K326_10E
B26: GpH7-A5/GpH7-B3 variant K326_07I/GpL16-k0 (antibody, human IgG1, kappa)
heavy 1: not shown
heavy 2: not shown
light: B1 light
notes: Alteration in one H chain only; also called He Ab K326_07I
B27: GpH7-A5/GpH7-B3 variant K326_08L/GpL16-k0 (antibody, human IgG1, kappa)
heavy 1: not shown
heavy 2: not shown
light: B1 light
notes: Alteration in one H chain only; also called He Ab K326_08L
B28: GpH7-A5/GpH7-B3 variant K326_03V/GpL16-k0 (antibody, human IgG1, kappa)
heavy 1: not shown
heavy 2: not shown
light: B1 light
notes: Alteration in one H chain only; also called He Ab K326_03V
B29: GpH7-A5/GpH7-B3 variant K326_04F/GpL16-k0 (antibody, human IgG1, kappa)
heavy 1: not shown
heavy 2: not shown
light: B1 light
notes: Alteration in one H chain only; also called He Ab K326_04F
B30: GpH7-A5/GpH7-B3 variant K334_02A/GpL16-k0 (antibody, human IgG1, kappa)
heavy 1: not shown
heavy 2: not shown
light: B1 light
notes: Alteration in one H chain only; also called He Ab K334_02A

Target: T1, FcγRIa (human, UniProt P12314 16-292)
T1 construct: extracellular domain; also called FcgRI; FcgRIa; not shown: His tag attached to the C terminus
Test: SPR (Biacore), relative binding; control HoCon Ab GpH7-B3/GpL16-k0

T1 sequence (P12314 16-292): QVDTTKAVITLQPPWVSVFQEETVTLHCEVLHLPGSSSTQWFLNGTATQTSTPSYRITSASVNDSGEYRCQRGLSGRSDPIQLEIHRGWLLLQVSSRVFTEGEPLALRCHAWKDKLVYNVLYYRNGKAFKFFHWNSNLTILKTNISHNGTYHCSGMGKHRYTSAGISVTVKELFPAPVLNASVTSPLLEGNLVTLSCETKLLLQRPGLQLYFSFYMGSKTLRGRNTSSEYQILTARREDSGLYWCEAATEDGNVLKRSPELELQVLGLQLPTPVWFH

Row | Ho/Con_1a | Binder
1 | 105 % of control (=100) | B1
2 | 104 % of control (=100) | B2
3 | 107 % of control (=100) | B3
4 | 105 % of control (=100) | B4
5 | 106 % of control (=100) | B5
6 | 105 % of control (=100) | B6
7 | 105 % of control (=100) | B7
8 | 107 % of control (=100) | B8
9 | 106 % of control (=100) | B9
10 | 108 % of control (=100) | B10
11 | 104 % of control (=100) | B11
12 | 105 % of control (=100) | B12
13 | 106 % of control (=100) | B13
14 | 105 % of control (=100) | B14
15 | 103 % of control (=100) | B15
16 | 106 % of control (=100) | B16

Target: T1, FcγRIa
Test: SPR (Biacore), relative binding; control HeCon Ab GpH7-A5/GpH7-B3/GpL16-k0

Row | He/Con_1a | Binder
17 | 104 % of control (=100) | B17
18 | 102 % of control (=100) | B18
19 | 103 % of control (=100) | B19
20 | 105 % of control (=100) | B20
21 | 101 % of control (=100) | B21
22 | 102 % of control (=100) | B22
23 | 103 % of control (=100) | B23
24 | 103 % of control (=100) | B24
25 | 104 % of control (=100) | B25
26 | 101 % of control (=100) | B26
27 | 100 % of control (=100) | B27
28 | 102 % of control (=100) | B28
29 | 102 % of control (=100) | B29
30 | 106 % of control (=100) | B30

Source: patent publication US20150344570A1 (published 2015)
